Sequences and labels used below:
B1: FAM46D (parent)
chain: FQEAMTHLQHKLICTRKPEEIRGG
B2: TTC32 (parent)
chain: YSAYIRRCACAASSDESPGSKCSP

Protein stability index data for 94 variants are collected here from the supplement of paper PMC10567573.
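Further: lentivirally expressed fusions sorted by FACS into six bins by GFP to DsRed ratio, PSI derived from sequencing read proportions per bin multiplied by bin number.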

The variants in the first data set derive from B1. As to the kind of experiment: protein stability index of a GFP-peptide fusion (GPS, HEK-293T) (PSI 1-6); higher = more stable. The following applies: c terminus: a fixed tail appended.
On to FQEAMVHLQHKLICTRKPEEIRGG [T6V], for which the protein stability index stood at 2.86.
On the same count and under the same terms, the result for FQEAMAHLQHKLICTRKPEEIRGG [T6A] reads 2.
Take FQEAMEHLQHKLICTRKPEEIRGG [T6E]: the protein stability index came out at 3.38.
Consider FQEAMYHLQHKLICTRKPEEIRGG [T6Y], for which the protein stability index is 1.54.
The same measure, in the same setting: with FQEAMNHLQHKLICTRKPEEIRGG [T6N] the figure was 2.11; with FQEAMTHLDHKLICTRKPEEIRGG [Q9D], 2.89; with FQEAMTHLQHKLICTCKPEEIRGG [R16C], 1.84.
In the case of FQEAMTHLQHKEICTRKPEEIRGG [L12E], the protein stability index was 3.27.
FQEAMTHLQHKQICTRKPEEIRGG [L12Q]: the protein stability index came out at 3.87.
On the same count and under the same terms, the result for FQEAMTHLQHKMICTRKPEEIRGG [L12M] reads 3.84; that for FQEAMTHLQHKIICTRKPEEIRGG [L12I], 2.78; that for FQEAMTHLQHKAICTRKPEEIRGG [L12A], 3.49.
Consider FQEAMTHLQHKFICTRKPEEIRGG [L12F], for which the protein stability index turned out to be 2.38.
As to FQEAMTHLQHKCICTRKPEEIRGG [L12C], the protein stability index amounted to 2.84.
Take FQEAMTHLQHKLILTRKPEEIRGG [C14L]: the protein stability index worked out at 2.55.
Same read-out and setting: with FQEAMTHLQHKLIRTRKPEEIRGG [C14R] the figure was 3.28.
The same measure, in the same setting: the result for FQEAMTHYQHKLICTRKPEEIRGG [L8Y] reads 2.34; that for FQEAMTHSQHKLICTRKPEEIRGG [L8S], 3.62; that for FQEAMTHLQHFLICTRKPEEIRGG [K11F], 2.16.
On the same count and under the same terms, the result for FQEAMTHLQHELICTRKPEEIRGG [K11E] reads 3.88; that for FQEAMTHLQHPLICTRKPEEIRGG [K11P], 2.44.
As to FQEAMTHLQHQLICTRKPEEIRGG [K11Q], the protein stability index was determined as 2.41.
With FQEAMTHLQHKLTCTRKPEEIRGG [I13T], the protein stability index was determined as 2.52.
The same measure, in the same setting: the result for FQEAMTHLQHKLYCTRKPEEIRGG [I13Y] reads 3.58; that for FQEAMTHLQHKLRCTRKPEEIRGG [I13R], 2.72.
FQEAMTHLQHKLPCTRKPEEIRGG [I13P]: the protein stability index was found to be 2.95.
In the case of FQEAMTHLQHKLICTRKPEEHRGG [I21H], the protein stability index stood at 3.4.
On the same count and under the same terms, with FQEAMTHLQHKLICTRKPEEARGG [I21A] the figure was 3.27.
On the same count and under the same terms, with FQEAMTHLQHKLICTRKPEEERGG [I21E] the figure was 2.98; with FQEAMTHLQHKLICTRKPEETRGG [I21T], 3.56.
Same read-out and setting: with FQLAMTHLQHKLICTRKPEEIRGG [E3L] the figure was 1.9; with DQEAMTHLQHKLICTRKPEEIRGG [F1D], 4.81.
Take RQEAMTHLQHKLICTRKPEEIRGG [F1R]: the protein stability index was 3.82.
Take FQEAMTHLQHKLICERKPEEIRGG [T15E]: the protein stability index was 3.06.
Same read-out and setting: with FQEAMTHLQHKLICHRKPEEIRGG [T15H] the figure was 2.22; with FQEAMTHLQHKLICQRKPEEIRGG [T15Q], 3.31; with FQEAMTHLQHKLICYRKPEEIRGG [T15Y], 2.17.
As to FQEAMTHLQHKLICTRKPAEIRGG [E19A], the protein stability index came to 2.79.
The same measure, in the same setting: the result for FQEAMTHLQHKLICTRKPDEIRGG [E19D] reads 2.55; that for FQEAMTHLQQKLICTRKPEEIRGG [H10Q], 3.05; that for FQEAMTHLQVKLICTRKPEEIRGG [H10V], 1.92.
The same measure, in the same setting: with FQEAMTHLQMKLICTRKPEEIRGG [H10M] the figure was 1.44; with FQEWMTHLQHKLICTRKPEEIRGG [A4W], 1.58; with FQESMTHLQHKLICTRKPEEIRGG [A4S], 2.99.
As for FQEAMTHLQHKLICTRKPEEITGG [R22T], the protein stability index was determined as 2.96.
The same measure, in the same setting: the result for FQEAMTHLQHKLICTRKPEEILGG [R22L] reads 2.7; that for FQEAATHLQHKLICTRKPEEIRGG [M5A], 3.21; that for FQEAVTHLQHKLICTRKPEEIRGG [M5V], 2.97.
FQEANTHLQHKLICTRKPEEIRGG [M5N]: the protein stability index came out at 3.53.
The same measure, in the same setting: with FQEAFTHLQHKLICTRKPEEIRGG [M5F] the figure was 1.93; with FQEAMTHLQHKLICTRKSEEIRGG [P18S], 2.43.
FQEAMTHLQHKLICTRKNEEIRGG [P18N]: the protein stability index worked out at 3.04.
Turning to FQEAMTHLQHKLICTRKAEEIRGG [P18A], the protein stability index is 2.72.
On to FQEAMTHLQHKLICTRKPERIRGG [E20R], for which the protein stability index amounted to 2.19.
Regarding FQEAMTHLQHKLICTRKPEGIRGG [E20G], the protein stability index stood at 1.99.
For the variant FQEAMTHLQHKLICTRKPEVIRGG [E20V], the protein stability index is 2.38.
Consider FPEAMTHLQHKLICTRKPEEIRGG [Q2P], for which the protein stability index stood at 2.53.
As for FHEAMTHLQHKLICTRKPEEIRGG [Q2H], the protein stability index is 2.02.
In the case of FSEAMTHLQHKLICTRKPEEIRGG [Q2S], the protein stability index worked out at 2.74.
For the variant FQEAMTKLQHKLICTRKPEEIRGG [H7K], the protein stability index came to 2.61.
In the case of FQEAMTILQHKLICTRKPEEIRGG [H7I], the protein stability index stood at 1.59.
As for FQEAMTMLQHKLICTRKPEEIRGG [H7M], the protein stability index came out at 1.11.
For FQEAMTHLQHKLICTRWPEEIRGG [K17W], the protein stability index is 2.03.
Still for that read-out and setting: the result for FQEAMTHLQHKLICTRLPEEIRGG [K17L] reads 1.66; that for FQEAMTHLQHKLICTRHPEEIRGG [K17H], 2.38.
Still for that read-out and setting: the result for FQEAMTHLQHKLICTRFPEEIRGG [K17F] reads 2.03; that for FQEAMTHLQHKLICTRYPEEIRGG [K17Y], 1.85; that for FQEAMTHLQHKLICTRDPEEIRGG [K17D], 3.46.
The same measure, in the same setting: the result for FQEAMTHLQHKLICTRKPEEIRLG [G23L] reads 2.66; that for FQEAMTHLQHKLICTRKPEEIRFG [G23F], 2.02.
On to FQEAMTHLQHKLICTRKPEEIRGF [G24F], for which the protein stability index is 2.3.
On the same count and under the same terms, the result for FQEAMTHLQHKLICTRKPEEIRGC [G24C] reads 2.52; that for FQEAMTHLQHKLICTRKPEEIRGI [G24I], 1.91.
The same measure, in the same setting: with FQEAMTHLQHKLICTRKPEEIRGQ [G24Q] the figure was 2.91; with FQEAMTHLQHKLICTRKPEEIRGS [G24S], 2.9.

Another data set covers variants of B2. The data set is described as above. As to conditions: c terminus: a fixed tail appended.
As for YSAYIRRCACAASSDESPGSKRSP [C22R], the protein stability index is 2.14.
Still for that read-out and setting: with YSAYIRRCACAASSDESPGSKQSP [C22Q] the figure was 2.02.
In the case of YSAYIRRCACAASSDESPGSKKSP [C22K], the protein stability index is 2.35.
Consider YSAYIRRCACAASSDESPGSKSSP [C22S], for which the protein stability index came to 2.28.
On to YSAYIRRCACAASSDESEGSKCSP [P18E], for which the protein stability index came to 2.36.
Still for that read-out and setting: with YSAYIRRCACAASQDESPGSKCSP [S14Q] the figure was 2.19; with YSAYIRRCACAASGDESPGSKCSP [S14G], 2.33; with YSAYIRRCACAASMDESPGSKCSP [S14M], 1.4.
Still for that read-out and setting: with YSAYIRRCACAQSSDESPGSKCSP [A12Q] the figure was 2.12; with YSAYIRRCACATSSDESPGSKCSP [A12T], 1.94.
In the case of YSAYIRRCACAYSSDESPGSKCSP [A12Y], the protein stability index was 1.75.
The same measure, in the same setting: the result for YSAYIRRCACANSSDESPGSKCSP [A12N] reads 2.33; that for YSAYIRRCACALSSDESPGSKCSP [A12L], 1.87.
YSAYIRRCAKAASSDESPGSKCSP [C10K]: the protein stability index turned out to be 3.42.
In the case of YSAYIRRCAVAASSDESPGSKCSP [C10V], the protein stability index was 2.07.
For the variant YSAYIRRCADAASSDESPGSKCSP [C10D], the protein stability index is 3.2.
On the same count and under the same terms, with YSAYIRRCACAASSDESPGSKCSA [P24A] the figure was 2.03.
On the same count and under the same terms, with YSAYIRRCACAASSDESPGSKCSG [P24G] the figure was 2.23.
On to YSAYIRRCACAASSDESPGSKCSL [P24L], for which the protein stability index was 2.1.
